The values that follow come from PMC9213720 (iScience, 2022).

This data set deals with the molecule itself.

B1: zSIGIRR-TIR (domain or fragment)
chain: KMYDAYISYVNNENDRKFVNFILKPHLENKYSHKLLLNNTNILPGAEPSAELLMNISRCQRLIVVLSQSYLEQEWCTTNFRQGLWHLIELSRKPIFIIFQSQQKQISQDISQQLRQHQPCITMITWGAHSMTPSSGFWKELALVMPRK
B1: the “stoichiometry N” value was 2.
